B1: PSf42.4: anti-PSMA monoclonal antibody; light chain variable SEQ ID NO:51, heavy chain variable SEQ ID NO:52 (antibody, V domains shown)
VH: EVKLQQSGAELVKPGASVKLSCTASGFSIRDTYMHWVRQRPEQGLEWITGIDPENGNSKYAPRFQDKATIIADTSSNTVHLQLDTLTSEDTAVYYCTRELAYWGQGTTVTVS
VL: DILMTQSPLTLSVIIGQPASFSCKSSHSLLHRDGRTYLNWLLQRPGQSPQRLIYLVSKLDSGVPDRFTGSGSGTDFTLKISRVEAEDLGVYYCWQGTHFPRTFGGGTKLEIKRA

Test system: 22 different tumor types
Assay: Immunohistochemistry on tissue microarrays of tumor types
Settings: Astrocytoma
Procedure: (§1) Tissue and tumor specificity of mAbs: to compare the tissue and tumor specificity of monoclonal antibodies of the present invention, tissue microarrays of 30 different normal tissues (Biochain) and 22 different tumor types (Dako) including prostate cancer was used in order to characterize their recognition specificity. The immunohistochemistry was performed on antigen retrieved, formalin fixed, paraffin embedded material. Anti-PSMA mAbs J591 (ATCC HB-12126) and 7E11 (ATCC HB-10494) were used as references. Formalin fixed paraffin embedded […] sections were subjected to antigen retrieval in basic antigen retrieval solution (BD Pharmingen pH 9.5) in a microwavable pressure cooker for 10 min, cooled and equilibrated to 0.01M phosphate buffered saline (PBS) pH 7.4. Staining was carried out at room temperature in a humidified chamber. Endogenous peroxidases were inactivated with a 1% solution of H2O2 for 20 min, blocked with 5% normal goat serum (NGS) for 30 min and incubated with primary monoclonal antibodies (mAbs) diluted in PBS; 2% NGS overnight. Antibody binding to tissue sections was detected by the sequential addition of the following reagents followed by washing in PBS: goat anti-mouse IgG (H+L) (ICN) secondary antibody diluted 1:100 in PBS; 2% NGS for 1 hr, a complex of a bi-specific mAb mouse anti-peroxidase and horse radish peroxidase for 1 hr, and 3,3-diaminobenzidene tetrahydrochloride (DAB) at 0.6 mg/ml in PBS; 2% NGS; 0.01% H2O2 as chromogen. The primary antibodies were purified mAbs used at concentrations optimized in dilution experiments. […] Mouse IgG mAb was used at a concentration of 0.2 μg/ml and served as a negative control for the primary antibodies. Tissue samples included organ confined and metastatic prostate cancer, HGPIN and normal prostate tissues drawn from radical prostatectomies, transurethral resections and autopsy material.

Row | Molecule | No. of positive cases/total no. of cases studied
1 | B1 | 0/2

Same assay, conditions: Breast carcinoma

Row | Molecule | No. of positive cases/total no. of cases studied
2 | B1 | 0/2

Same assay, conditions: Carcinoid

Row | Molecule | No. of positive cases/total no. of cases studied
3 | B1 | 0/3

Same assay, conditions: Colonic adenocarcinoma

Row | Molecule | No. of positive cases/total no. of cases studied
4 | B1 | 0/2

Same assay, conditions: Epithelioid sarcoma

Row | Molecule | No. of positive cases/total no. of cases studied
5 | B1 | 0/1

Same assay, conditions: Ewing's sarcoma

Row | Molecule | No. of positive cases/total no. of cases studied
6 | B1 | 0/1

Same assay, conditions: Gastric carcinoma

Row | Molecule | No. of positive cases/total no. of cases studied
7 | B1 | 0/2

Same assay, conditions: Hepatocellular carcinoma

Row | Molecule | No. of positive cases/total no. of cases studied
8 | B1 | 0/2

Same assay, conditions: Hodgkin's lymphoma

Row | Molecule | No. of positive cases/total no. of cases studied
9 | B1 | 5/13

Same assay, conditions: Leiomyoma

Row | Molecule | No. of positive cases/total no. of cases studied
10 | B1 | 0/2

Same assay, conditions: Lung adeno carcinoma

Row | Molecule | No. of positive cases/total no. of cases studied
11 | B1 | 0/2

Same assay, conditions: Lymphoma

Row | Molecule | No. of positive cases/total no. of cases studied
12 | B1 | 0/3

Same assay, conditions: Malignant fibrous histiocytoma

Row | Molecule | No. of positive cases/total no. of cases studied
13 | B1 | 0/1

Same assay, conditions: Melanoma

Row | Molecule | No. of positive cases/total no. of cases studied
14 | B1 | 2/4

Same assay, conditions: Mesothelioma

Row | Molecule | No. of positive cases/total no. of cases studied
15 | B1 | 0/2

Same assay, conditions: Ovarian carcinoma

Row | Molecule | No. of positive cases/total no. of cases studied
16 | B1 | 0/2

Same assay, conditions: Pancreatic carcinoma

Row | Molecule | No. of positive cases/total no. of cases studied
17 | B1 | 0/2

Same assay, conditions: Prostatic carcinoma

Row | Molecule | No. of positive cases/total no. of cases studied
18 | B1 | 1/1

Same assay, conditions: Renal cell carcinoma

Row | Molecule | No. of positive cases/total no. of cases studied
19 | B1 | 0/2

Same assay, conditions: Rhabdosarcoma

Row | Molecule | No. of positive cases/total no. of cases studied
20 | B1 | 2/2

Same assay, conditions: Thyroid carcinoma

Row | Molecule | No. of positive cases/total no. of cases studied
21 | B1 | 0/2

Same assay, conditions: Undifferentiated carcinoma

Row | Molecule | No. of positive cases/total no. of cases studied
22 | B1 | 0/4

Test system: 30 different normal tissues
Assay: Immunohistochemistry on tissue microarrays of normal tissues
Settings: Adipose
Procedure: as §1

Row | Molecule | No. of positive cases/total no. of cases studied
23 | B1 | 0/2

Same assay, conditions: Bladder

Row | Molecule | No. of positive cases/total no. of cases studied
24 | B1 | 0/2

Same assay, conditions: Brain

Row | Molecule | No. of positive cases/total no. of cases studied
25 | B1 | 0/2

Same assay, conditions: Breast

Row | Molecule | No. of positive cases/total no. of cases studied
26 | B1 | 0/2

Same assay, conditions: Cerebullum

Row | Molecule | No. of positive cases/total no. of cases studied
27 | B1 | 0/2

Same assay, conditions: Cervix

Row | Molecule | No. of positive cases/total no. of cases studied
28 | B1 | 0/2

Same assay, conditions: Colon

Row | Molecule | No. of positive cases/total no. of cases studied
29 | B1 | 0/2

Same assay, conditions: Diaphragm

Row | Molecule | No. of positive cases/total no. of cases studied
30 | B1 | 2/2

Same assay, conditions: Duodenum

Row | Molecule | No. of positive cases/total no. of cases studied
31 | B1 | 0/2

Same assay, conditions: Esophagus

Row | Molecule | No. of positive cases/total no. of cases studied
32 | B1 | 0/2

Same assay, conditions: Gallbladder

Row | Molecule | No. of positive cases/total no. of cases studied
33 | B1 | 0/2

Same assay, conditions: Heart

Row | Molecule | No. of positive cases/total no. of cases studied
34 | B1 | 0/2

Same assay, conditions: Ileum

Row | Molecule | No. of positive cases/total no. of cases studied
35 | B1 | 2/2

Same assay, conditions: Jejenum

Row | Molecule | No. of positive cases/total no. of cases studied
36 | B1 | 2/2

Same assay, conditions: Kidney

Row | Molecule | No. of positive cases/total no. of cases studied
37 | B1 | 1/2

Same assay, conditions: Liver

Row | Molecule | No. of positive cases/total no. of cases studied
38 | B1 | 0/2

Same assay, conditions: Lung

Row | Molecule | No. of positive cases/total no. of cases studied
39 | B1 | 0/2

Same assay, conditions: Ovary

Row | Molecule | No. of positive cases/total no. of cases studied
40 | B1 | 0/2

Same assay, conditions: Pancreas

Row | Molecule | No. of positive cases/total no. of cases studied
41 | B1 | 0/2

Same assay, conditions: Placenta

Row | Molecule | No. of positive cases/total no. of cases studied
42 | B1 | 1/4

Same assay, conditions: Rectum

Row | Molecule | No. of positive cases/total no. of cases studied
43 | B1 | 0/2

Same assay, conditions: Skeletal muscle

Row | Molecule | No. of positive cases/total no. of cases studied
44 | B1 | 2/2

Same assay, conditions: Skin

Row | Molecule | No. of positive cases/total no. of cases studied
45 | B1 | 0/2

Same assay, conditions: Spleen

Row | Molecule | No. of positive cases/total no. of cases studied
46 | B1 | 0/2

Same assay, conditions: Stomach

Row | Molecule | No. of positive cases/total no. of cases studied
47 | B1 | 0/2

Same assay, conditions: Testis

Row | Molecule | No. of positive cases/total no. of cases studied
48 | B1 | 0/2

Same assay, conditions: Thymus

Row | Molecule | No. of positive cases/total no. of cases studied
49 | B1 | 0/2

Same assay, conditions: Thyroid

Row | Molecule | No. of positive cases/total no. of cases studied
50 | B1 | 0/2

Same assay, conditions: Tonsil

Row | Molecule | No. of positive cases/total no. of cases studied
51 | B1 | 0/2

Same assay, conditions: Uterus

Row | Molecule | No. of positive cases/total no. of cases studied
52 | B1 | 0/2
